Reference: patent publication US20100130424A1 (Janssen / Centocor, published 2010)
Values belong to the binder of their own block, whether it stands above or below them. No end group written: not given here. *: point of attachment. Succinimide(1-Et,3-yl) = CCN1C(=O)CC(*)C1=O

Target: T1, human CRH receptor type 2 (human, UniProt Q13324 1-411)
T1 sequence (looked up): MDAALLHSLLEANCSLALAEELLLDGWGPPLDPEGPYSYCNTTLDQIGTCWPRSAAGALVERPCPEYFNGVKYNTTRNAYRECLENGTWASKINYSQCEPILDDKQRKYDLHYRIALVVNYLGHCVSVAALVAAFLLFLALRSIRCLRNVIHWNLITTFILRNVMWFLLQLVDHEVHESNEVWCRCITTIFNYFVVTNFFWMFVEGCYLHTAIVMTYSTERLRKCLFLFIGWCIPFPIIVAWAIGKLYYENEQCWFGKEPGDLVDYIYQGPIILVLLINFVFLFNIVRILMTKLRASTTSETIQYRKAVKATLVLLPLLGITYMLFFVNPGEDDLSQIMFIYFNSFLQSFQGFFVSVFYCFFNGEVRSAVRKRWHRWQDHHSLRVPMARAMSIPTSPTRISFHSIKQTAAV
Test: cell-based or functional assay

- Log DR against h-SCP, cAMP: 1.9 log10 ratio
- pA50, cAMP: 7.84 -log M
Binder: TKFTLSLDVPTNIMNLLFNIAKAKNLRCQAAANAHLMAQI (NES-PEG MW80000, branched, on Cys 28; C-terminal amide) [Pegylated Cys-variant CRHR2 peptide agonist (NES-PEG MW80000 & BRANCHED), SEQ ID NO: 101]

- Log DR against h-SCP, cAMP: 0.04 log10 ratio
- pA50, cAMP: 9.43 -log M
B4: Cys-variant of stresscopin peptide with N-Ethylsuccinimide (NES) reactive group, SEQ ID NO: 46 (peptide)
peptide: TKFTLSLDVPTNIMNLLFNIAKAKNLRAQAC(Succinimide(1-Et,3-yl))ANAHLMAQI-NH2
modifications: N-terminus assumed
SMILES: CC[C@H](C)[C@H](NC(=O)[C@H](CCC(N)=O)NC(=O)[C@H](C)NC(=O)[C@H](CCSC)NC(=O)[C@H](CC(C)C)NC(=O)[C@H](Cc1c[nH]cn1)NC(=O)[C@H](C)NC(=O)[C@H](CC(N)=O)NC(=O)[C@H](C)NC(=O)[C@H](CSC1CC(=O)N(CC)C1=O)NC(=O)[C@H](C)NC(=O)[C@H](CCC(N)=O)NC(=O)[C@H](C)NC(=O)[C@H](CCCNC(=N)N)NC(=O)[C@H](CC(C)C)NC(=O)[C@H](CC(N)=O)NC(=O)[C@H](CCCCN)NC(=O)[C@H](C)NC(=O)[C@H](CCCCN)NC(=O)[C@H](C)NC(=O)[C@@H](NC(=O)[C@H](CC(N)=O)NC(=O)[C@H](Cc1ccccc1)NC(=O)[C@H](CC(C)C)NC(=O)[C@H](CC(C)C)NC(=O)[C@H](CC(N)=O)NC(=O)[C@H](CCSC)NC(=O)[C@@H](NC(=O)[C@H](CC(N)=O)NC(=O)[C@@H](NC(=O)[C@@H]1CCCN1C(=O)[C@@H](NC(=O)[C@H](CC(=O)O)NC(=O)[C@H](CC(C)C)NC(=O)[C@H](CO)NC(=O)[C@H](CC(C)C)NC(=O)[C@@H](NC(=O)[C@H](Cc1ccccc1)NC(=O)[C@H](CCCCN)NC(=O)[C@@H](N)[C@@H](C)O)[C@@H](C)O)C(C)C)[C@@H](C)O)[C@@H](C)CC)[C@@H](C)CC)C(N)=O

Continued, binder first:

B1: Cys-variant of stresscopin peptide with N-Ethylsuccinimide (NES) reactive group, SEQ ID NO: 49 (peptide)
peptide: TKFTLSLDVPTNIMNLLFNIAKAKC(Succinimide(1-Et,3-yl))LRAQAAANAHLMAQI-NH2
modifications: N-terminus assumed
SMILES: CC[C@H](C)[C@H](NC(=O)[C@H](CCC(N)=O)NC(=O)[C@H](C)NC(=O)[C@H](CCSC)NC(=O)[C@H](CC(C)C)NC(=O)[C@H](Cc1c[nH]cn1)NC(=O)[C@H](C)NC(=O)[C@H](CC(N)=O)NC(=O)[C@H](C)NC(=O)[C@H](C)NC(=O)[C@H](C)NC(=O)[C@H](CCC(N)=O)NC(=O)[C@H](C)NC(=O)[C@H](CCCNC(=N)N)NC(=O)[C@H](CC(C)C)NC(=O)[C@H](CSC1CC(=O)N(CC)C1=O)NC(=O)[C@H](CCCCN)NC(=O)[C@H](C)NC(=O)[C@H](CCCCN)NC(=O)[C@H](C)NC(=O)[C@@H](NC(=O)[C@H](CC(N)=O)NC(=O)[C@H](Cc1ccccc1)NC(=O)[C@H](CC(C)C)NC(=O)[C@H](CC(C)C)NC(=O)[C@H](CC(N)=O)NC(=O)[C@H](CCSC)NC(=O)[C@@H](NC(=O)[C@H](CC(N)=O)NC(=O)[C@@H](NC(=O)[C@@H]1CCCN1C(=O)[C@@H](NC(=O)[C@H](CC(=O)O)NC(=O)[C@H](CC(C)C)NC(=O)[C@H](CO)NC(=O)[C@H](CC(C)C)NC(=O)[C@@H](NC(=O)[C@H](Cc1ccccc1)NC(=O)[C@H](CCCCN)NC(=O)[C@@H](N)[C@@H](C)O)[C@@H](C)O)C(C)C)[C@@H](C)O)[C@@H](C)CC)[C@@H](C)CC)C(N)=O
- Log DR against h-SCP, cAMP: 0.11 log10 ratio
- pA50, cAMP: 9.36 -log M

B2: Cys-variant of stresscopin peptide with N-Ethylsuccinimide (NES) reactive group, SEQ ID NO: 48 (peptide)
peptide: TKFTLSLDVPTNIMNLLFNIAKAKNC(Succinimide(1-Et,3-yl))RAQAAANAHLMAQI-NH2
modifications: N-terminus assumed
SMILES: CC[C@H](C)[C@H](NC(=O)[C@H](CCC(N)=O)NC(=O)[C@H](C)NC(=O)[C@H](CCSC)NC(=O)[C@H](CC(C)C)NC(=O)[C@H](Cc1c[nH]cn1)NC(=O)[C@H](C)NC(=O)[C@H](CC(N)=O)NC(=O)[C@H](C)NC(=O)[C@H](C)NC(=O)[C@H](C)NC(=O)[C@H](CCC(N)=O)NC(=O)[C@H](C)NC(=O)[C@H](CCCNC(=N)N)NC(=O)[C@H](CSC1CC(=O)N(CC)C1=O)NC(=O)[C@H](CC(N)=O)NC(=O)[C@H](CCCCN)NC(=O)[C@H](C)NC(=O)[C@H](CCCCN)NC(=O)[C@H](C)NC(=O)[C@@H](NC(=O)[C@H](CC(N)=O)NC(=O)[C@H](Cc1ccccc1)NC(=O)[C@H](CC(C)C)NC(=O)[C@H](CC(C)C)NC(=O)[C@H](CC(N)=O)NC(=O)[C@H](CCSC)NC(=O)[C@@H](NC(=O)[C@H](CC(N)=O)NC(=O)[C@@H](NC(=O)[C@@H]1CCCN1C(=O)[C@@H](NC(=O)[C@H](CC(=O)O)NC(=O)[C@H](CC(C)C)NC(=O)[C@H](CO)NC(=O)[C@H](CC(C)C)NC(=O)[C@@H](NC(=O)[C@H](Cc1ccccc1)NC(=O)[C@H](CCCCN)NC(=O)[C@@H](N)[C@@H](C)O)[C@@H](C)O)C(C)C)[C@@H](C)O)[C@@H](C)CC)[C@@H](C)CC)C(N)=O
- Log DR against h-SCP, cAMP: 0.03 log10 ratio
- pA50, cAMP: 9.44 -log M

Binder: TKFTLSLDVPTNIMNLLFNIAKAKNLRCQAAANAHLMAQI (NES-PEG MW40000 on Cys 28; C-terminal amide) [Pegylated Cys-variant CRHR2 peptide agonist (NES-PEG MW40000), SEQ ID NO: 100]
- Log DR against h-SCP, cAMP: 1.1 log10 ratio
- pA50, cAMP: 8.64 -log M

B3: Cys-variant of stresscopin peptide with N-Ethylsuccinimide (NES) reactive group, SEQ ID NO: 47 (peptide)
peptide: TKFTLSLDVPTNIMNLLFNIAKAKNLRC(Succinimide(1-Et,3-yl))QAAANAHLMAQI-NH2
modifications: N-terminus assumed
SMILES: CC[C@H](C)[C@H](NC(=O)[C@H](CCC(N)=O)NC(=O)[C@H](C)NC(=O)[C@H](CCSC)NC(=O)[C@H](CC(C)C)NC(=O)[C@H](Cc1c[nH]cn1)NC(=O)[C@H](C)NC(=O)[C@H](CC(N)=O)NC(=O)[C@H](C)NC(=O)[C@H](C)NC(=O)[C@H](C)NC(=O)[C@H](CCC(N)=O)NC(=O)[C@H](CSC1CC(=O)N(CC)C1=O)NC(=O)[C@H](CCCNC(=N)N)NC(=O)[C@H](CC(C)C)NC(=O)[C@H](CC(N)=O)NC(=O)[C@H](CCCCN)NC(=O)[C@H](C)NC(=O)[C@H](CCCCN)NC(=O)[C@H](C)NC(=O)[C@@H](NC(=O)[C@H](CC(N)=O)NC(=O)[C@H](Cc1ccccc1)NC(=O)[C@H](CC(C)C)NC(=O)[C@H](CC(C)C)NC(=O)[C@H](CC(N)=O)NC(=O)[C@H](CCSC)NC(=O)[C@@H](NC(=O)[C@H](CC(N)=O)NC(=O)[C@@H](NC(=O)[C@@H]1CCCN1C(=O)[C@@H](NC(=O)[C@H](CC(=O)O)NC(=O)[C@H](CC(C)C)NC(=O)[C@H](CO)NC(=O)[C@H](CC(C)C)NC(=O)[C@@H](NC(=O)[C@H](Cc1ccccc1)NC(=O)[C@H](CCCCN)NC(=O)[C@@H](N)[C@@H](C)O)[C@@H](C)O)C(C)C)[C@@H](C)O)[C@@H](C)CC)[C@@H](C)CC)C(N)=O
- Log DR against h-SCP, cAMP: -0.03 log10 ratio
- pA50, cAMP: 9.5 -log M
